B1: Pistol ribozyme (parent)
chain: GGGUCGUUGUUCCAUAAUCGCGUGGAUAUGGCACGCAAGUUUCUACCGGGCACCGUAAAUGUCCGACUGGAGCCGUUCGGGCGGCUAUAAACAGACCUCAGGCCCGAAGCGUGGCGGCACCUGCCGCCGGUGGUAAAAAAGAUCGGAAGAGCACACGUCU

Variants of: B1
Test: aptazyme ON/OFF ratio, guanine; higher = stronger switching; co-transcriptional cleavage with and without guanine

Variant | aptazyme ON/OFF ratio
U7A U8G G9A U10G U11A C12U C13G | 1.35
U7A U8G G9A U10G U11A C12U C13A | 1.7
U7A U8G G9A U10G U11A C12U C13U | 1.27
U7A U8G G9A U10A C12A C13A | 1.27
U7A U8G G9A U10A C12A C13G | 1.06
U7A U8G G9A U10A C12A C13U | 1.37
U7A U8G G9A U10C U11G | 1.74
U7A U8G G9A U10C U11A | 1.68
U7A U8G G9A U10C U11C | 1.02
U7A U8G G9A U10A U11A C12G C13U | 1.37
U7A U8G G9A U10A U11A C12G C13G | 1.34
U7A U8G G9A U10A U11A C12G C13A | 1.29
U7A U8G G9A U10A U11G C12G C13U | 1.48
U7A U8G G9A U10A U11G C12G C13A | 1.38
U7A U8G G9A U10A U11G C12G C13G | 1.46
U7A U8G G9A C12U C13U | 1.04
U7A U8G G9A C12U C13G | 1.23
U7A U8G G9A C12U C13A | 1.28
U7A U8G G9A U10A C13A | 1.41
U7A U8G G9A U10A C13G | 1.18
U7A U8G G9A U10A C13U | 1.26
U7A U8G G9C C12G C13G | 1.18
U7A U8G G9C C12G C13A | 1.36
U7A U8G G9C C12G C13U | 1.34

Variant | aptazyme ON/OFF ratio
U7A U8G G9A U10C U11A C12U | 1.2
U7A U8G G9A U10C U11A C12A | 1.24
U7A U8G G9A U10C U11A C12G | 1.13
U7A U8G G9C U10A C13A | 1.19
U7A U8G G9C U10A C13G | 1.15
U7A U8G G9C U10A C13U | 1.3
U7A U8G G9C U10A U11A C13U | 1.26
U7A U8G G9C U10A U11A C13A | 1.15
U7A U8G G9C U10A U11A C13G | 1.15
U7A U8G G9A U10G U11A C12A C13U | 1.11
U7A U8G G9A U10G U11A C12A C13G | 1.41
U7A U8G G9A U10G U11A C12A C13A | 1.19
U7A U8G G9A U10G U11G C12U C13A | 1.33
U7A U8G G9A U10G U11G C12U C13U | 1.22
U7A U8G G9A U10G U11G C12U C13G | 1
U7A U8G G9C C13A | 1.47
U7A U8G G9C C13U | 1.42
U7A U8G G9C C13G | 1.11
U7A U8G G9A C12G C13A | 1.19
U7A U8G G9A C12G C13G | 1.81
U7A U8G G9A C12G C13U | 1.37
U7A U8G G9A U10A C12G | 1.53
U7A U8G G9A U10A C12A | 1.3
U7A U8G G9A U10A C12U | 1.37

Variant | aptazyme ON/OFF ratio
U7A U8G | 1.13
U7A U8G G9A U10C U11A C12A C13A | 1.12
U7A U8G G9A U10C U11A C12A C13U | 1.19
U7A U8G G9A U10C U11A C12A C13G | 1.11
U7A U8G G9A U10C U11G C12G C13G | 1.16
U7A U8G G9A U10C U11G C12G C13U | 1.1
U7A U8G G9A U10C U11G C12G C13A | 1.22
U7A U8G G9C U10A C12G C13U | 1.28
U7A U8G G9C U10A C12G C13A | 1.25
U7A U8G G9C U10A C12G C13G | 1.28
U7A U8G G9A U10G U11C C12G | 1.38
U7A U8G G9A U10G U11C C12A | 1.45
U7A U8G G9A U10G U11C C12U | 1.16
U7A U8G G9A U10A U11A C13A | 1.19
U7A U8G G9A U10A U11A C13G | 1.17
U7A U8G G9A U10A U11A C13U | 1.17
U7A U8G G9A U11C C12G | 1.56
U7A U8G G9A U11C C12A | 1.46
U7A U8G G9A U11C C12U | 1.39
U7A U8G G9A U10A C12U C13A | 1.38
U7A U8G G9A U10A C12U C13U | 1.04
U7A U8G G9A U10A C12U C13G | 1.13
U7A U8G G9A U10G U11C C12A C13G | 1.36
U7A U8G G9A U10G U11C C12A C13U | 1.38

Variant | aptazyme ON/OFF ratio
U7A U8G G9A U10G U11C C12A C13A | 1.2
U7A U8G G9A U10G U11C C13G | 1.1
U7A U8G G9A U10G U11C C13U | 1.06
U7A U8G G9A U10G U11C C13A | 1.12
U7A U8G G9A U10A U11G C12A | 1.08
U7A U8G G9A U10A U11G C12U | 1.14
U7A U8G G9A U10A U11G C12G | 1.26
U7A U8G G9A U10C C12U C13G | 1.13
U7A U8G G9A U10C C12U C13U | 1.27
U7A U8G G9A U10C C12U C13A | 1.17
U7A U8G G9A U10C C12U | 1.23
U7A U8G G9A U10C C12G | 1.35
U7A U8G G9A U10C C12A | 1.25
U7A U8G G9A U10G U11C C12G C13G | 1.23
U7A U8G G9A U10G U11C C12G C13U | 1.22
U7A U8G G9A U10G U11C C12G C13A | 1.4
U7A U8G G9A U10A U11G C13U | 1.09
U7A U8G G9A U10A U11G C13A | 1.13
U7A U8G G9A U10A U11G C13G | 1.27
U7A U8G G9A U10G U11C C12U C13U | 1.14
U7A U8G G9A U10G U11C C12U C13G | 1.09
U7A U8G G9A U10G U11C C12U C13A | 1.32
U7A U8G G9C U10A U11A C12G C13U | 1.38
U7A U8G G9C U10A U11A C12G C13G | 1.36

Variant | aptazyme ON/OFF ratio
U7A U8G G9C U10A U11A C12G C13A | 1.15
U7A U8G G9C U10A C12G | 1.43
U7A U8G G9C U10A C12A | 1.4
U7A U8G G9C U10A C12U | 1.36
U7A U8G G9A U10C U11C C12G | 1.07
U7A U8G G9A U10C U11C C12A | 1.13
U7A U8G G9A U10C U11C C12U | 1.08
U7A U8G G9A U11A | 1.7
U7A U8G G9A U11G | 1.64
U7A U8G G9A U11C | 1.33
U7A U8G G9A U10A U11A C12U | 1.31
U7A U8G G9A U10A U11A C12G | 1.46
U7A U8G G9A U10A U11A C12A | 1.45
U7A U8G G9A U11A C12G | 1.37
U7A U8G G9A U11A C12A | 1.56
U7A U8G G9A U11A C12U | 1.38
U7A U8G G9A U10G U11G C12G | 1.24
U7A U8G G9A U10G U11G C12A | 1.46
U7A U8G G9A U10G U11G C12U | 1.32
U7A U8G G9A U10G C12U C13A | 1.43
U7A U8G G9A U10G C12U C13U | 1.24
U7A U8G G9A U10G C12U C13G | 1.36
U7A U8G C13A | 1.42
U7A U8G C13G | 1.1

Variant | aptazyme ON/OFF ratio
U7A U8G C13U | 1.2
U7A U8G G9C U10A U11A | 1.89
U7A U8G G9C U10A U11C | 1.04
U7A U8G G9A U11C C12A C13G | 1.3
U7A U8G G9A U11C C12A C13U | 1.38
U7A U8G G9A U11C C12A C13A | 1.14
U7A U8G G9A U10A | 1.4
U7A U8G G9A U10C | 2.9
U7A U8G G9A U10G | 1.43
U7A U8G G9A U11C C12G C13U | 1.14
U7A U8G G9A U11C C12G C13G | 1.4
U7A U8G G9A U11C C12G C13A | 1.32
U7A U8G G9A U10G C12A C13G | 1.13
U7A U8G G9A U10G C12A C13A | 1.39
U7A U8G G9A U10G C12A C13U | 1.31
U7A U8G G9A U10C U11G C13G | 1.3
U7A U8G G9A U10C U11G C13A | 1.19
U7A U8G G9A U10C U11G C13U | 1.25
U7A U8G G9A U10A U11G | 1.8
U7A U8G G9A U10A U11A | 1.8
U7A U8G G9A U10A U11C | 1.03
U7A U8G G9A U11A C12G C13U | 1.25
U7A U8G G9A U11A C12G C13A | 1.19
U7A U8G G9A U11A C12G C13G | 1.33

Variant | aptazyme ON/OFF ratio
U7A U8G G9A U10C U11A C12G C13U | 1.22
U7A U8G G9A U10C U11A C12G C13A | 1.04
U7A U8G G9A U10C U11A C12G C13G | 1.13
U7A U8G G9C U10A U11A C12A C13U | 1.38
U7A U8G G9C U10A U11A C12A C13G | 1.35
U7A U8G G9C U10A U11A C12A C13A | 1.5
U7A U8G G9C U10A U11C C12A C13A | 1.17
U7A U8G G9C U10A U11C C12A C13U | 1.5
U7A U8G G9C U10A U11C C12A C13G | 1.28
U7A U8G G9A U10C U11G C12U C13G | 1.33
U7A U8G G9A U10C U11G C12U C13A | 1.21
U7A U8G G9A U10C U11G C12U C13U | 1.23
U7A U8G G9A U10A U11C C12U C13A | 1.15
U7A U8G G9A U10A U11C C12U C13U | 1.26
U7A U8G G9A U10A U11C C12U C13G | 1.17
U7A U8G G9A U10A U11C C12G C13G | 1.08
U7A U8G G9A U10A U11C C12G C13A | 1.21
U7A U8G G9A U10A U11C C12G C13U | 1.33
U7A U8G G9A U10G U11A C13U | 1.03
U7A U8G G9A U10G U11A C13G | 1.16
U7A U8G G9A U10G U11A C13A | 1.11
U7A U8G G9C U10A U11A C12G | 1.36
U7A U8G G9C U10A U11A C12U | 1.44
